Test results taken from US20190062399A1.

Biological target: B7-1Ig (CD80-Ig fusion protein) (UniProt P33681)
Experiment: SPR kinetics (Biacore), 75-200 nM analyte over B7-1Ig chip (694 RU)

Sequence of Protein A eluate of the HIC cleaning peak (mixture of all CTLA4-Ig species) (chain): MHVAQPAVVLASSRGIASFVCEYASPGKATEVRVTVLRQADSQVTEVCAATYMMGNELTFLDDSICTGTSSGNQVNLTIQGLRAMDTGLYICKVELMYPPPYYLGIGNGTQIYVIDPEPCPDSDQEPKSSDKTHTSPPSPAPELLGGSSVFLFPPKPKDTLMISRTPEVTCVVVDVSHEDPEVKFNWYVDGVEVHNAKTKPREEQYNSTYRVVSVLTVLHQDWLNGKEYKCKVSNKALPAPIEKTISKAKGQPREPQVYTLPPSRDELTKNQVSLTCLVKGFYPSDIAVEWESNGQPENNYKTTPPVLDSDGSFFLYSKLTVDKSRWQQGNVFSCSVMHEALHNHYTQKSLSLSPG
Sequence of UniProt P33681 (P33681 35-242 limits assumed): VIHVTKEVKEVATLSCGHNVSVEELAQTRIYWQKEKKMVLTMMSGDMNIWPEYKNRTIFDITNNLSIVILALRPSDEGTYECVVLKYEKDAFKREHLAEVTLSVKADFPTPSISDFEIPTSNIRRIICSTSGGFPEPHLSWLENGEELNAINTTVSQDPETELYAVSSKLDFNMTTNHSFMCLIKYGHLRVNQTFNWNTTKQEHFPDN

Ka: 3.87e+07 M⁻¹
Kd: 25.8 nM
koff: 0.00973 s⁻¹
kon: 377000 M⁻¹ s⁻¹
Substance: Protein A eluate of the HIC cleaning peak (mixture of all CTLA4-Ig species)
